Measurements: the supplement of paper PMC9233669
This sample holds only a part of the variants without activity.

How the values were obtained:
biotinyl-Ile-oxazolone = assay: self-aminoacylation, catalytic enhancement (BIO) (fold over background); higher = more active; k-Seq, kA / k0A0; sequences stand for … in GGGAAUGGAUCCACAUCUACGAAUUC…UUCACUGCAGACUUGACGAAGCUG
How it was run: (§1)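 Each biotinyl-aminoacyl-oxazolone, at 2–1250 μM, was incubated with mutagenized RNA pools (0.43 μM) carrying a 21-nt variable region. The 50 μL reactions contained HEPES/NaCl/KCl/MgCl2/CaCl2 buffer with 5% acetonitrile at pH 6.9–7.0 and ran for 90 minutes at room temperature. After streptavidin capture, RNA was measured by qPCR in triplicate and by Illumina sequencing, and catalytic enhancement was calculated as median kA over the uncatalyzed rate from a pseudo-first-order fit of per-sequence fraction reacted.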

biotinyl-Trp-oxazolone = assay: self-aminoacylation, catalytic enhancement (BWO) (fold over background); higher = more active; k-Seq, kA / k0A0; sequences stand for … in GGGAAUGGAUCCACAUCUACGAAUUC…UUCACUGCAGACUUGACGAAGCUG
How it was run: as §1

biotinyl-Leu-oxazolone = assay: self-aminoacylation, catalytic enhancement (BLO) (fold over background); higher = more active; k-Seq, kA / k0A0; sequences stand for … in GGGAAUGGAUCCACAUCUACGAAUUC…UUCACUGCAGACUUGACGAAGCUG
How it was run: as §1

biotinyl-Phe-oxazolone = assay: self-aminoacylation, catalytic enhancement (BFO) (fold over background); higher = more active; k-Seq, kA / k0A0; sequences stand for … in GGGAAUGGAUCCACAUCUACGAAUUC…UUCACUGCAGACUUGACGAAGCUG
How it was run: as §1

biotinyl-Val-oxazolone = assay: self-aminoacylation, catalytic enhancement (BVO) (fold over background); higher = more active; k-Seq, kA / k0A0; sequences stand for … in GGGAAUGGAUCCACAUCUACGAAUUC…UUCACUGCAGACUUGACGAAGCUG
How it was run: as §1

biotinyl-Met-oxazolone = assay: self-aminoacylation, catalytic enhancement (BMO) (fold over background); higher = more active; k-Seq, kA / k0A0; sequences stand for … in GGGAAUGGAUCCACAUCUACGAAUUC…UUCACUGCAGACUUGACGAAGCUG
How it was run: as §1

Sequence | self-aminoacylation (biotinyl-Ile-oxazolone) | self-aminoacylation (biotinyl-Trp-oxazolone) | self-aminoacylation (biotinyl-Leu-oxazolone) | self-aminoacylation (biotinyl-Phe-oxazolone) | self-aminoacylation (biotinyl-Val-oxazolone) | self-aminoacylation (biotinyl-Met-oxazolone)
AAUCACCUAGGUGAUCGGGUG [Fam2.2 aminoacylation ribozyme variant] | 4.6 | 5.05 | 4.84 | 27.7 | 4.03 | 5.43
UUUACCCUGGUUAUCGAGUGA [Fam2.1 aminoacylation ribozyme variant] | 4.28 | 10.6 | 7.57 | 25.7 | 4.19 | 7.81
CGACUUCAAACAAGCGGUCUG [Fam1A.1 aminoacylation ribozyme variant] | 1.39 | 1.45 | 1.11 | 1.23 | 1.37 | 1.6
AUUCACCUAGGUCACCGGGCG [Fam2.2 aminoacylation ribozyme variant] | 3.96 | 4.68 | 4.7 | 11.3 | 4.43 | 3.66
ACUCACCUAUGUCAUCGGGUG [Fam2.2 aminoacylation ribozyme variant] | 4.11 | 6.08 | 6.52 | 33.4 | 4.18 | 5.4
CUAGUUUAAACAAUCGGUCUG [Fam1A.1 aminoacylation ribozyme variant] | 0.924 | 0.631 | 0.774 | 0.814 | 0.765 | 0.84
AAGUUUGCUAAUAGUCGCAAC [Fam3.1 aminoacylation ribozyme variant] | 0.972 | 1.06 | 0.816 | 1.28 | 0.935 | 0.904
AAUUUUGCUAAUCGUCGCAAG [Fam3.1 aminoacylation ribozyme variant] | 1.91 | 1.62 | 1.37 | 2.37 | 1.56 | 1.53
AUGACACUGGUCAUCGAGUGA [Fam2.1 aminoacylation ribozyme variant] | 3.42 | 6.47 | 6.42 | 25.8 | 3.05 | 5.48
CCACACUUGAAGCAAUCGAUC [Fam1B.1 aminoacylation ribozyme variant] | 0.482 | 0.348 | 0.407 | 0.662 | 0.612 | 0.436
AUUACCCCGGUCAUUGAGUGA [Fam2.1 aminoacylation ribozyme variant] | 3.22 | 8.47 | 6.53 | 43.9 | 3.79 | 7.29
AAGUUUGCUAAUCGCCGCAAG [Fam3.1 aminoacylation ribozyme variant] | 1.97 | 4.38 | 1.54 | 2.82 | 1.47 | 1.56
AGGUUUGCUGAUAGUCGCAAG [Fam3.1 aminoacylation ribozyme variant] | 1.49 | 1.83 | 1.83 | 2.52 | 1.2 | 1.53
AAGUAUGCUAUUAGUCGCAAG [Fam3.1 aminoacylation ribozyme variant] | 1.66 | 1.76 | 1.68 | 1.49 | 1.59 | 1.38
CUACUGAAAACAAUCGGUCUG [Fam1A.1 aminoacylation ribozyme variant] | 0.84 | 0.78 | 0.708 | 0.542 | 0.706 | 0.735
AUUCACCUAGGUCAUUGGGAG [Fam2.2 aminoacylation ribozyme variant] | 1.15 | 1.16 | 1.07 | 0.946 | 0.991 | 1.05
CUACUUCAAACAAUCGCUAUG [Fam1A.1 aminoacylation ribozyme variant] | 0.99 | 0.755 | 0.878 | 1.32 | 0.973 | 0.958
AAGCUUGCUAAUAGUCGAAAG [Fam3.1 aminoacylation ribozyme variant] | 1.58 | 1.88 | 1.16 | 3.53 | 1.35 | 1.73
AAGUUUGCCAAUAUUCGCAAG [Fam3.1 aminoacylation ribozyme variant] | 1.51 | 1.45 | 1.07 | 3.77 | 1.07 | 1.35
CCACACUUUAAGCAAUCGGAC [Fam1B.1 aminoacylation ribozyme variant] | 0.85 | 0.544 | 0.737 | 0.866 | 0.839 | 0.664
AUUACUCUGGUCAUCGGGUGA [Fam2.1 aminoacylation ribozyme variant] | 5.43 | 12.2 | 11.8 | 39.7 | 6.05 | 10.1
